Test results as given in US20260297187 (published 2026).
Like-named read-outs stand apart in the source and are kept apart here.

T1: CEACAM6 (human, UniProt P40199)
T1 chain: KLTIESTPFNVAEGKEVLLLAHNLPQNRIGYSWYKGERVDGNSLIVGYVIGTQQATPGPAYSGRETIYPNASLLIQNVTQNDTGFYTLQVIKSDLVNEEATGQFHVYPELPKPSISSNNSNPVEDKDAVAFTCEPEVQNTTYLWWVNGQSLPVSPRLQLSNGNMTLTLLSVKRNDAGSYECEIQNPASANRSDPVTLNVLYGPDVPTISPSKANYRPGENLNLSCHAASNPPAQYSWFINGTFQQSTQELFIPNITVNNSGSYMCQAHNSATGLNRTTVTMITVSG

T2: CEACAM5 (human, UniProt P06731)
T2 chain: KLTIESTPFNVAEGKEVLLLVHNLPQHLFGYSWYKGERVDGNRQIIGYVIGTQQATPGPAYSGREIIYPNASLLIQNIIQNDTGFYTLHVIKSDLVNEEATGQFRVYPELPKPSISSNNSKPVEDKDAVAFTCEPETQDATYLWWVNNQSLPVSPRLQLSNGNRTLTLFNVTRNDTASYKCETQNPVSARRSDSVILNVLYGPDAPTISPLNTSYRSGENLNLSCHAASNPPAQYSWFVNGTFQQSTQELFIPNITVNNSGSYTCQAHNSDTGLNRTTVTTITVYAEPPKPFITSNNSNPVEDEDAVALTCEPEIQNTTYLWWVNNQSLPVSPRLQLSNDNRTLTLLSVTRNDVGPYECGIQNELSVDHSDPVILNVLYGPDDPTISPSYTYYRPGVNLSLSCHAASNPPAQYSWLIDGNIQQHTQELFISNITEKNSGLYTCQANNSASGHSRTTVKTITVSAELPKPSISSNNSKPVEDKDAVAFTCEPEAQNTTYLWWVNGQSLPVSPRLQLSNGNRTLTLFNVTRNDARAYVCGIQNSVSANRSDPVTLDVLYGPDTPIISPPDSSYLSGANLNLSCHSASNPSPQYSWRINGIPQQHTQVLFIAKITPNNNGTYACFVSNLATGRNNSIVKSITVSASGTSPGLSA

T3: CEACAM3 (human, UniProt P40198)
T3 chain: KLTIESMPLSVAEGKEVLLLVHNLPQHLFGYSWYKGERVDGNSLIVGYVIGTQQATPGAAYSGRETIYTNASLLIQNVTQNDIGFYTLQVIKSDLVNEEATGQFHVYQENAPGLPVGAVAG

T4: CEACAM1-his (human)
T4 chain: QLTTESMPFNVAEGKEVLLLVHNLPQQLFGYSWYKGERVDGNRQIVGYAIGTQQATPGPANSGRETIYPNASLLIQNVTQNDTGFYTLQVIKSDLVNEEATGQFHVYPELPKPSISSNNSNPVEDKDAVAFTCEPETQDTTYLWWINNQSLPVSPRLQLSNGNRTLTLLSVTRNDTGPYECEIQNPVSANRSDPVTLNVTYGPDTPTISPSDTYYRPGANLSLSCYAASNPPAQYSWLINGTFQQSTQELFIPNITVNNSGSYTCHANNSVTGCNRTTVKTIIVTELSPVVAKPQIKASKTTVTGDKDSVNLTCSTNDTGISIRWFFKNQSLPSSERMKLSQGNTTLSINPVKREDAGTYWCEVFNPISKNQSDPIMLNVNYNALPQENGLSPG


Legend:
[1] = target: T1, CEACAM6; assay: BLI
[2] = target: T2, CEACAM5; assay: BLI
[3] = target: T3, CEACAM3; assay: BLI
[4] = target: T4, CEACAM1-his; assay: BLI
[5] = target: T4, CEACAM1-his; assay: BLI
[6] = target: T4, CEACAM1-his; assay: BLI
[7] = target: CEACAM1 (cell surface) (human); assay: FACS, HepG2
Chain of CEACAM1 (cell surface) (human) (chain, as listed by the source): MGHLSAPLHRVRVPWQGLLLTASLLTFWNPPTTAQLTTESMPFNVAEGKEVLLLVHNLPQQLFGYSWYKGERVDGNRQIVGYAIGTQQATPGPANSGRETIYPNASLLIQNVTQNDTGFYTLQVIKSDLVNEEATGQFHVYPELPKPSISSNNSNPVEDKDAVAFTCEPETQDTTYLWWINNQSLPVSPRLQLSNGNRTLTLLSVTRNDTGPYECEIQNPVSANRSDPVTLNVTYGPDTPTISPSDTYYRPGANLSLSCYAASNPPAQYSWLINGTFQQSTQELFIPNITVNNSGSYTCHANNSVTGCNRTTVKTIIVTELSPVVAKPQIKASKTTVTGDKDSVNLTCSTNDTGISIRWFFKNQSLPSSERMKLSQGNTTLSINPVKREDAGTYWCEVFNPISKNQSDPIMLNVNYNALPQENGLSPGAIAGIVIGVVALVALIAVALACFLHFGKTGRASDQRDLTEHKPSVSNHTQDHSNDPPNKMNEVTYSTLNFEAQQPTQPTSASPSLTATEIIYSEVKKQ

[8] = target: CEACAM1 (cell surface) (human); assay: FACS, BxPC-3
[9] = target: T4, CEACAM1-his; assay: BLI
[10] = target: CEACAM1 (cell surface) (human); assay: FACS, Raji-CEACAM1

Binder | binding result [1] | binding result [2] | binding result [3] | Kd [4] | Kd [5] | Kd [6] | EC50 [7] | EC50 [8] | Kd [9] | EC50 [10]
4D10 (antibody, V domains shown) VH: EVQLQQSGPELVKPGASVKMSCKASGYTFSSYVIHWVRQKPGQGLEWIGYFNPYNNGTNYNENFKGKATLTSGKSSSTAYMELSSLTSEDSAVYYCARYYYASGSLYFDYWGQGTTLTVSS VL: EIVLTQSPAIATASLGQKVTITCSASSSVSYMHWYQQKSGTSPKPWIYEISKLASGVPTRFSGSGSGTSYSLTISSMEAEDAAIYYCQQWNYPLITFGAGTKLELK | no binding | no binding | no binding | – | – | – | – | – | – | –
h4D10.G4.H4L2 (antibody, V domains shown) VH: QVQLVQSGAEVKKPGASVKVSCKASGYTFSSYVIHWVRQAPGQGLEWMGYFNPYNNGTNYNENFKGRVTMTADTSTSTVYMELSSLRSEDTAVYYCARYYYASGSLYFDYWGQGTTVTVSS VL: DIQMTQSPSTLSASVGDRVTITCSASSSVSYMHWYQQKPGKAPKPLIYEISKLASGVPSRFSGSGSGTEFTLTISSLQPDDAATYYCQQWNYPLITFGGGTKVEIK | – | – | – | – | 1.7 nM | 1.7 nM | 0.039 µg/mL | 0.0263 µg/mL | 2.65 nM | 0.0699 µg/mL
h2C10.G4.H0aL4 (antibody, V domains shown) VH: QVQLVQSGAEVKKPGASVKVSCKASGFAFTNYLIEWVRQAPGQGLEWMGVLNPGSGATNYNEKFKGRVTMTRDTSISTAYMELSRLRSDDTAVYYCARGIYGGYFAMDYWGQGTLVTVSS VL: DIQMTQSPSSLSASVGDRVTITCRASQDITTYLNWYQQKPGGAPKLLIYYTSRLHSGVPSRFSGSGSGTDFTLTISSLQPEDIATYYCQQGNTLPRTFGGGTKLEIK | – | – | – | – | 1.83 nM | 1.83 nM | 0.0491 µg/mL | 0.031 µg/mL | – | 0.0862 µg/mL
h2C10.G4.H0aL2 (antibody, V domains shown) VH: QVQLVQSGAEVKKPGASVKVSCKASGFAFTNYLIEWVRQAPGQGLEWMGVLNPGSGATNYNEKFKGRVTMTRDTSISTAYMELSRLRSDDTAVYYCARGIYGGYFAMDYWGQGTLVTVSS VL: DIQMTQSTSSLSASVGDRVTITCRASQDITTYLNWYQQKPGGAPKLLIYYTSRLHSGVPSRFSGSGSGTDYTLTISSLQPEDIATYYCQQGNTLPRTFGGGTKLEIK | – | – | – | – | 0.85 nM | 0.85 nM | 0.0684 µg/mL | 0.0464 µg/mL | – | 0.0746 µg/mL

Further lines, results first:

binding result [1] | binding result [2] | binding result [3] | Kd [4] | Kd [5] | Kd [6] | EC50 [7] | EC50 [8] | Kd [9] | EC50 [10] | Binder
no binding | – | no binding | 0.955 nM | – | – | – | – | – | – | 2C10 (antibody, V domains shown) VH: QVQLQQSGAELVRPGTSVKVSCKASGFAFTNYLIEWVKQRPGQGLEWIGVLNPGSGATNYNEKFKGKATLTADKSSSTAYMQLSSLTSDDSAVYFCARGIYGGYFAMDYWGQGTSVTVSS VL: DIQMTQTTSSLSASLGDRVTISCRASQDITTYLNWYQQRPDGTVKLLIYYTSRLHSGVPSRFSGSGSGTEYSLTISNLEQEDIATYFCQQGNTLPRTFGGGTKLEIR
– | – | – | – | 3.68 nM | 3.68 nM | 0.0974 µg/mL | 0.0723 µg/mL | – | – | h9D12.G4.H0bL7 (antibody, V domains shown) VH: QVQLVQSGAEVKKPGASVKVSCKASGFNIKDTYMHWVRQAPGQGLEWMGRIDLASGDSKYDPKFQGRVTMTRDTSTSTVYMELSSLRSEDTAVYYCARAHFGGGNWYFDVWGQGTTVTVSS VL: DIQLTQSPSFLSASVGDRVTITCSASSSVSYMHWYQQKPGQAPKPWIYEISKLASGVPSRFSGSGSGTEYTLTISSMQSEDFAVYYCQQWNYPLTFGQGTKLEIK
